Results taken from PMC8099091, “Heterogeneous multimeric structure of isocitrate lyase in complex with succinate and itaconate provides novel insights into its inhibitory mechanism” (PLoS ONE, 2021).

Molecular target: the molecule itself
Test: SEC-MALS; Superdex 200 Increase 10/300 GL, 20 mM Tris-HCl pH 8.0, 150 mM NaCl, 0.4 mL/min, 20°C; repeated under various conditions with the same results

B1: isocitrate lyase from Mycobacterium tuberculosis (tbICL) (enzyme)
chain: MSVVGTPKSAEQIQQEWDTNPRWKDVTRTYSAEDVVALQGSVVEEHTLARRGAEVLWEQLHDLEWVNALGALTGNMAVQQVRAGLKAIYLSGWQVAGDANLSGHTYPDQSLYPANSVPQVVRRINNALQRADQIAKIEGDTSVENWLAPIVADGEAGFGGALNVYELQKALIAAGVAGSHWEDQLASEKKCGHLGGKVLIPTQQHIRTLTSARLAADVADVPTVVIARTDAEAATLITSDVDERDQPFITGERTREGFYRTKNGIEPCIARAKAYAPFADLIWMETGTPDLEAARQFSEAVKAEYPDQMLAYNCSPSFNWKKHLDDATIAKFQKELAAMGFKFQFITLAGFHALNYSMFDLAYGYAQNQMSAYVELQEREFAAEERGYTATKHQREVGAGYFDRIATTVDPNSSTTALTGSTEEGQFH
notes: Tetramer in solution by SEC-MALS; dimer (subunits A and B) in the asymmetric unit, tetramer by twofold crystal symmetry; Theoretical monomer mass 47.08 kDa including the C-terminal His-tag; also called tbICL1; isocitrate lyase isoform 1; not shown: His-tag, C-terminal, kept
For B1, the “stoichiometry N” value was 4.
